Data reported in the supplement of paper PMC10567573.

B1: ZNF649 (parent)
chain: YQAGKPDALTKLEQGEPLWTLEDE
B2: KIAA0774 (parent)
chain: FEDEVKRLGWQQQAELQELEERLQ

Variants of: B1
Experiment: protein stability index of a GFP-peptide fusion (GPS, HEK-293T) (PSI 1-6); higher = more stable
Conditions: c terminus: a fixed tail appended
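Note: lentivirally expressed fusions sorted by FACS into six bins by GFP to DsRed ratio, PSI derived from sequencing read proportions per bin multiplied by bin number.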

| Variant | protein stability index |
| --- | --- |
| E13P | 4.18 |
| E13H | 4.25 |
| E13V | 4.21 |
| E13F | 2.6 |
| E13T | 3.86 |
| E13W | 1.98 |
| E13N | 4.16 |
| E13L | 3.14 |
| E13Q | 2.87 |
| E13S | 4 |
| E13D | 4.18 |
| E13A | 4.2 |
| E13K | 3.34 |
| E13Y | 3.12 |
| E13M | 3.45 |
| E13G | 3.31 |
| E13C | 3.2 |
| E13I | 3.15 |
| E13R | 3.26 |
| K11V | 4.69 |
| K11F | 3.37 |
| K11I | 4.54 |
| K11C | 4.45 |
| K11Q | 4.76 |
| K11M | 4.77 |
| K11G | 4.21 |

| Variant | protein stability index |
| --- | --- |
| K11R | 4.14 |
| K11S | 4.19 |
| K11W | 2.86 |
| K11E | 4.06 |
| K11T | 4.09 |
| K11P | 5.28 |
| K11D | 4.86 |
| K11Y | 3.51 |
| K11H | 4.78 |
| K11L | 4.23 |
| K11N | 4.51 |
| K11A | 4.66 |
| P6S | 4.19 |
| P6V | 4.42 |
| P6M | 3.85 |
| P6N | 4.15 |
| P6Y | 3.91 |
| P6W | 2.99 |
| P6K | 4.29 |
| P6L | 3.79 |
| P6T | 4.64 |
| P6Q | 4.15 |
| W19F | 4.86 |
| W19R | 4.69 |
| W19A | 5.52 |
| W19E | 5.34 |

| Variant | protein stability index |
| --- | --- |
| W19T | 5.61 |
| W19S | 5.57 |
| W19C | 4.86 |
| W19K | 4.98 |
| W19D | 5.31 |
| W19I | 5.21 |
| W19P | 5.62 |
| W19V | 5.72 |
| W19M | 4.87 |
| W19N | 5.2 |
| W19Y | 5.24 |
| W19H | 5.72 |
| W19L | 4.92 |
| E24R | 4.48 |
| E24P | 4.32 |
| E24S | 4.27 |
| E24F | 3.05 |
| E24Y | 3.29 |
| E24A | 3.74 |
| E24H | 4.04 |
| E24T | 4.42 |
| E24D | 4.71 |
| E24M | 3.88 |
| E24L | 3.53 |
| E24W | 2.38 |
| E24C | 3.49 |

| Variant | protein stability index |
| --- | --- |
| E24G | 3.87 |
| E24I | 3.42 |
| E24V | 3.42 |
| E24N | 4.27 |
| E24K | 4.41 |
| E24Q | 4.02 |
| E22K | 3.46 |
| E22V | 2.88 |
| E22L | 3.6 |
| E22Q | 3.5 |
| E22A | 4.8 |
| E22I | 3.75 |
| E22S | 2.75 |
| E22H | 3.3 |
| E22D | 4.6 |
| E22N | 3.95 |
| E22P | 4.39 |
| E22Y | 2.62 |
| E22F | 2.05 |
| E22M | 2.92 |
| E22G | 3.88 |
| E22C | 3.45 |
| E22T | 4.28 |
| E22W | 2.35 |
| L9P | 4.38 |
| L9C | 4.63 |

| Variant | protein stability index |
| --- | --- |
| L9M | 3.61 |
| L9K | 4.86 |
| L9T | 4.71 |
| L9F | 4.01 |
| L9S | 4.9 |
| L9Y | 4.54 |
| L9W | 1.86 |
| L9G | 4.55 |
| L9Q | 4.67 |
| L9N | 3.99 |
| L9E | 4.93 |
| L9H | 4.04 |
| L9D | 5.48 |
| L9V | 4.62 |
| L9I | 4.69 |
| L9A | 4.95 |
| L9R | 4.29 |
| L12C | 5.11 |
| L12N | 4.78 |
| L12R | 4.4 |
| L12Y | 4.68 |
| L12G | 4.83 |
| L12I | 4.56 |
| L12T | 4.22 |
| L12P | 4.38 |
| L12F | 4.37 |

| Variant | protein stability index |
| --- | --- |
| L12H | 4.73 |
| L12M | 4.54 |
| L12V | 4.32 |
| L12W | 3.75 |
| L12Q | 4.56 |
| L12S | 4.52 |
| L12A | 4.95 |
| L12K | 4.17 |
| E16M | 1.92 |
| E16D | 4.94 |
| E16I | 2.1 |
| E16Y | 2.62 |
| E16F | 2 |
| E16H | 3.32 |
| E16P | 3.93 |
| E16N | 3.73 |
| E16W | 2.49 |
| E16L | 3.66 |
| E16Q | 3.76 |
| E16T | 3.97 |
| E16S | 4.38 |
| E16G | 4.06 |
| E16K | 4.49 |
| E16A | 3.93 |
| E16V | 2.59 |
| L21C | 2.78 |

| Variant | protein stability index |
| --- | --- |
| L21G | 4.4 |
| L21H | 5.03 |
| L21S | 4.52 |
| L21D | 4.89 |
| L21Q | 4.23 |
| L21A | 4.47 |
| L21W | 3.52 |
| L21V | 2.31 |
| L21E | 5.3 |
| L21R | 4.55 |
| L21F | 4.42 |
| L21M | 3.88 |
| L21T | 4.37 |
| L21I | 4.06 |
| L21N | 4.39 |
| L21K | 4.79 |
| L21Y | 4.95 |
| P17R | 3.94 |
| P17N | 4.41 |
| P17W | 3.36 |
| P17Y | 3.23 |
| P17Q | 4.47 |
| P17M | 4.1 |
| P17E | 4.21 |
| P17C | 3.46 |
| P17H | 4.1 |

| Variant | protein stability index |
| --- | --- |
| P17I | 3.22 |
| P17A | 4.86 |
| P17G | 3.47 |
| P17F | 3.68 |
| P17K | 3.97 |
| P17L | 3.95 |
| T20A | 3.73 |
| T20I | 3.96 |
| T20R | 4.34 |
| T20W | 2.67 |
| T20H | 4.57 |
| T20F | 4.22 |
| T20Q | 4.82 |
| T20S | 3.73 |
| T20V | 4.41 |
| T20C | 2.62 |
| T20D | 5.06 |
| T20L | 3.15 |
| T20E | 5.14 |
| T20K | 4.13 |
| T20G | 4.24 |
| T20Y | 4.7 |
| T20N | 4.42 |
| T20M | 5.05 |
| T20P | 4.58 |
| Q14G | 4.92 |

| Variant | protein stability index |
| --- | --- |
| Q14W | 4.44 |
| Q14F | 3.89 |
| Q14P | 4.63 |
| Q14A | 4.11 |
| Q14K | 4.28 |
| Q14H | 4.14 |
| Q14R | 3.8 |
| Q14L | 4.07 |
| Q14Y | 3.53 |
| Q14M | 4.17 |
| Q14V | 4.71 |
| Q14S | 4.13 |
| Q14N | 4.07 |
| Q14I | 4.44 |
| Q14D | 4.67 |
| Q14C | 4.66 |
| Q14T | 4.71 |
| L18I | 3.53 |
| L18H | 5.06 |
| L18C | 4.91 |
| L18Y | 3.95 |
| L18K | 5.03 |
| L18S | 5.32 |
| L18R | 4.96 |
| L18M | 3.84 |
| L18F | 3.54 |

| Variant | protein stability index |
| --- | --- |
| L18T | 5.06 |
| L18A | 4.5 |
| L18D | 5.11 |
| L18P | 5.35 |
| L18G | 4.83 |
| L18E | 5.49 |
| L18Q | 5.19 |
| L18W | 3.59 |
| A8D | 4.94 |
| A8N | 4.49 |
| A8K | 4.85 |
| A8W | 1.18 |
| A8F | 2.91 |
| A8V | 3.51 |
| A8H | 4.04 |
| A8T | 3.95 |
| A8M | 3.83 |
| A8E | 5.31 |
| A8G | 4.87 |
| A8I | 4.08 |
| A8R | 4.65 |
| A8Q | 4.41 |
| A8P | 4.27 |
| A8C | 3.61 |
| A8L | 3.56 |
| A8S | 4.46 |

| Variant | protein stability index |
| --- | --- |
| D7Q | 3.58 |
| D7I | 2.61 |
| D7T | 3.59 |
| D7H | 4.18 |
| D7F | 2.49 |
| D7R | 3.65 |
| D7L | 3.15 |
| D7V | 3.28 |
| D7K | 3.66 |
| D7P | 4.16 |
| D7A | 3.4 |
| D7Y | 2.06 |
| D7E | 4.77 |
| D7C | 2.37 |
| D7S | 3.99 |
| D7N | 3.26 |
| D23W | 2.13 |
| D23F | 3.38 |
| D23C | 2.98 |
| D23R | 4.16 |
| D23K | 3.51 |
| D23P | 3.78 |
| D23Q | 3.86 |
| D23V | 3.81 |
| D23L | 2.97 |
| D23T | 3.32 |

| Variant | protein stability index |
| --- | --- |
| D23S | 4.11 |
| D23H | 4.13 |
| D23G | 3.61 |
| D23M | 2.99 |
| D23E | 4.57 |
| D23N | 3.25 |
| D23Y | 2.14 |
| D23I | 1.84 |
| T10Q | 4.55 |
| T10G | 3.69 |
| T10S | 4.62 |
| T10R | 3.97 |
| T10N | 4.41 |
| T10P | 4.97 |
| T10A | 4.88 |
| T10K | 3.15 |
| T10M | 4.22 |
| T10Y | 4.58 |
| T10I | 4.02 |
| T10E | 4.5 |
| T10C | 4.28 |
| T10V | 4.62 |
| T10L | 4.39 |
| T10D | 4.91 |
| T10W | 2.31 |
| G15H | 4.31 |

| Variant | protein stability index |
| --- | --- |
| G15F | 3.74 |
| G15Q | 4.31 |
| G15A | 3.84 |
| G15C | 3.9 |
| G15L | 4.25 |
| G15N | 4.11 |
| G15M | 3.97 |
| G15W | 3.39 |
| G15E | 4.88 |
| G15I | 4.15 |
| G15V | 4.62 |
| G15T | 4.15 |
| G15R | 2.82 |
| G15D | 4.6 |
| G15P | 3.89 |
| G15K | 4.4 |
| G15Y | 3.52 |
| G15S | 4.21 |

Variants of: B2
Experiment: as above
Conditions: c terminus: a fixed tail appended

| Variant | protein stability index |
| --- | --- |
| F1C | 3.11 |
| F1E | 4.66 |
| F1A | 4.11 |
| F1D | 4.72 |
